Measurements reported in article PMC4041439 (Nucleic Acids Research, 2014).

Target: T1, Mms4 (S. cerevisiae, UniProt P38257 1-691)
T1 sequence (looked up): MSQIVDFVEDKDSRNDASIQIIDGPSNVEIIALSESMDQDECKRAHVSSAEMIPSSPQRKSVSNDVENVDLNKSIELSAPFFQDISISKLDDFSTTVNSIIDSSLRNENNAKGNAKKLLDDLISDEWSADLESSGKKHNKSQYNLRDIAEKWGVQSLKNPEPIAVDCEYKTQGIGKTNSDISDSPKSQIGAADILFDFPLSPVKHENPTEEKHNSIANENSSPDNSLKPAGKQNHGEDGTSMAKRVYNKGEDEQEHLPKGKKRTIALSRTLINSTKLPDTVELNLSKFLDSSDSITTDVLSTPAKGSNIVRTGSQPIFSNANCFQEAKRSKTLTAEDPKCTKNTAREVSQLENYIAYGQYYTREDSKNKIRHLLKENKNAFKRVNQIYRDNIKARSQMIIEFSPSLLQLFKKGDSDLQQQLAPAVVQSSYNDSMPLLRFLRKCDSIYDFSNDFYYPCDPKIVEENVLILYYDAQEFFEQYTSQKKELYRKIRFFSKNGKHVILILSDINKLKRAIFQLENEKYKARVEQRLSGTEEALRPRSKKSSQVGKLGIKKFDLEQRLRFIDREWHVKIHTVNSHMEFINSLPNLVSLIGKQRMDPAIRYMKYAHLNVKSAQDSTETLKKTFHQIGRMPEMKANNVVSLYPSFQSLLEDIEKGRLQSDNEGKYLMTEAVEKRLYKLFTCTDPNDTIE
Experiment: cross-linking

binding result: binds
B1: Mus81 (enzyme, S. cerevisiae, UniProt Q04149 1-632, looked up)
chain: MELSSNLKDLYIEWLQELVDGLTPKQEQLKIAYEKAKRNLQNAEGSFYYPTDLKKVKGIGNTIIKRLDTKLRNYCKIHHISPVEAPSLTQTSSTRPPKRTTTALRSIVNSCENDKNEAPEEKGTKKRKTRKYIPKKRSGGYAILLSLLELNAIPRGVSKEQIIEVAGKYSDHCMTPNFSTKEFYGAWSSIAALKKHSLVLEEGRPKRYSLTEEGVELTKSLKTADGISFPKENEEPNEYSVTRNESSEFTANLTDLRGEYGKEEEPCDINNTSFMLDITFQDLSTPQRLQNNVFKNDRLNSQTNISSHKLEEVSDDQTVPDSALKAKSTIKRRRYNGVSYELWCSGDFEVFPIIDHREIKSQSDREFFSRAFERKGMKSEIRQLALGDIIWVAKNKNTGLQCVLNTIVERKRLDDLALSIRDNRFMEQKNRLEKSGCEHKYYLIEETMSGNIGNMNEALKTALWVILVYYKFSMIRTCNSDETVEKIHALHTVISHHYSQKDLIVIFPSDLKSKDDYKKVLLQFRREFERKGGIECCHNLECFQELMGKGDLKTVGELTIHVLMLVKGISLEKAVAIQEIFPTLNKILMAYKTCSSEEEAKLLMFNVLGDAPGAKKITKSLSEKIYDAFGKL
